Patent US20160368957A1

Target: recombinant human IL-17A (human) (UniProt Q16552)
Assay: cell-based or functional assay

recombinant human IL-17A (human), sequence (Q16552 20-155 limits assumed): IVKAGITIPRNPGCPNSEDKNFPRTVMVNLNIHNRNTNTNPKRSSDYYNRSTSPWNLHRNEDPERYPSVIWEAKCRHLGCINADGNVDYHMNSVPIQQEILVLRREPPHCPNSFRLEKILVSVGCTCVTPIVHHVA

IC50 of inhibition of IL-17A induced IL-6 production in NHDF cells (IL-17A 50 ng/ml): 1 nM | IC50 value (nM), IL-6 production by NHDF cells with IL-17A (1 ng/ml) and TNF alpha: 0.61 nM
Substance: human IL-17A receptor-Fc chimera (R&D Systems) (from UniProt Q96F46 33-320) (Fc fusion)
